B1: PDZK1 (parent)
chain: QKEQGLSDNILSPVMNGGVQTWTQ
B2: IQUB (parent)
chain: EADYEDDSKIAFLMQLQDIQYLTE

Variants of: B1
Assay: protein stability index of a GFP-peptide fusion (GPS, HEK-293T) (PSI 1-6); higher = more stable
Settings: c terminus: a fixed tail appended
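Further: lentivirally expressed fusions sorted by FACS into six bins by GFP to DsRed ratio, PSI derived from sequencing read proportions per bin multiplied by bin number.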

Variant	protein stability index
W22P	5.07
W22I	4.88
W22K	4.93
W22S	5.05
W22H	4.59
W22Q	5.24
W22E	4.3
W22R	5.04
W22A	4.41
W22Y	4.09
W22F	3.97
W22M	4.55
W22D	4.78
W22N	5.08
W22C	4.8
G17Y	2.5
G17K	2.13
G17S	3.31
G17I	3.36
G17M	2.36
G17T	2.25
G17A	3.96
G17W	1.85
G17F	2.19

Variant	protein stability index
G17L	2.8
G17R	2.04
G17V	3.6
G17H	1.91
G17E	3.27
V19N	2.6
V19A	2.99
V19M	1.9
V19T	3.09
V19Y	1.86
V19D	4.3
V19R	1.85
V19E	3.7
V19H	2.58
V19F	2.42
V19P	3.44
V19G	2.9
V19I	2.17
V19K	2.16
T23R	3.42
T23D	3.67
T23S	3.43
T23Q	2.16
T23I	4

Variant	protein stability index
T23P	4.25
T23K	3.39
T23N	3.12
T23F	3.02
T23W	2.96
T23G	3.5
T23Y	3.05
T23V	1.56
T23M	3.74
T21Q	3.55
T21K	3.46
T21R	3.23
T21C	2.66
T21M	3.63
T21E	3.71
T21W	2.82
T21N	3.65
T21A	3.61
T21L	2.68
T21P	3.74
T21D	4.85
T21F	2.75
Q24M	2.26
Q24I	2.36

Variant	protein stability index
Q24P	4.43
Q24G	3.58
Q24C	2.14
Q24E	3.43
Q24V	2.72
Q24S	1.68
Q24D	3.13
Q24F	1.78
Q24T	3.66
Q24K	3.55
Q24R	3.35
Q24H	2.84
G18D	3.35
G18W	2.33
G18F	2.45
G18E	2.56
G18H	2.62
G18V	2.47
G18A	3.46
G18I	2.61
G18R	1.84
G18N	2.67
G18Y	2.45
G18P	3.46

Variant	protein stability index
G18C	2.54
G18S	2.65
G18M	2.58
G18K	1.53
G18L	2.58
Q20D	3.29
Q20G	3.02
Q20I	2.49
Q20F	2.68
Q20C	2.16
Q20T	3
Q20A	3.69
Q20W	3.36
Q20P	3.07
Q20L	2.14
Q20N	3.73
Q20Y	2.68
Q20E	1.58
Q20S	2.88
Q20K	3.8
Q20V	2.67
N16S	2.81
N16Y	2.45

Variants of: B2
Assay: as above
Settings: c terminus: a fixed tail appended

Variant	protein stability index
D7S	2.47
E1I	2.09
F12I	3.19
E5M	2.53
I19P	4.18
I19W	2.64
I19L	2.86
I19A	4.17
K9N	3.08
K9S	3.06
K9M	2.47
A11I	1.99
A11H	2.97
Q20L	1.69
Q20A	2.5
Q20N	3.22
L13Y	2.84
L13W	3.51
L13Q	4.34
D6C	2.68
D6V	2.17
E24K	2.73
E24F	1.92
A2C	2.75

Variant	protein stability index
A2M	2.44
A2E	3.63
S8W	2.29
S8Q	3.32
D3H	2.17
D3Y	1.83
D3M	2.03
D3P	1.98
M14C	3.21
M14P	4.46
Q15L	2.04
Q15P	3.39
Q15M	2.36
L22S	3.99
L22I	3.62
L22D	4.97
D18S	2.24
D18L	1.69
I10L	3
Y21L	3.44
Y21H	3.55
Q17V	2.67
Q17L	2.68
Q17P	3.21
